Source: patent US20140187743A1, “SURFACE-ACTIVE COLLAGEN MEMBRANE BY PEPTIDE” (priority 2011, published 2014)
“And” between values parts separate entries of the source, which are not always exact repeats. Equal values may be shown once. Where no end group is shown, it is not given here. The star is where a group is joined. FITC = O=C1OC2(c3ccc(O)cc3Oc3cc(O)ccc32)c2ccc(NC(=S)*)cc21

Experiments:
[1] = system: E. coli; test: Antibacterial test by agar diffusion method, inhibition diameter of peptide-bound collagen membrane; type: cell-based; details: for Antibacterial activity (inhibition diameter) of peptide-bound collagen membrane: incubated for 3 days on E. coli plate
Experimental: In another example of the present invention, in order to examine the antibacterial activity of an antibacterial fusion peptide that binds specifically to collagen, a collagen membrane was prepared using each of the peptides of SEQ ID NO: 1, the peptide of SEQ ID NO: 26 and the peptide of SEQ ID NO: 29 in the same manner as described in Example 2. The prepared collagen membrane was washed in PBS for 1 hour and dried in air. To evaluate the antibacterial activity of the peptide, an antibacterial test was performed according to an agar diffusion method. Specifically, E. coli cells were cultured in TSB medium until the absorbance at 620 nm reached 1, and then the cells were harvested and used in the test. The harvested cells were diluted with PBS, and 10^5-10^7 bacterial cells per ml were plated on a TSA plate and incubated at 37° C for 24 hours. On the plate having the incubated bacterial cells thereon, a collagen membrane having each of the peptides of SEQ ID NOS: 1, 26 and 29 bound thereto was placed and incubated for 3 days. Then, the inhibition diameter against the growth of the bacterial cells was measured. […] Using each of the peptides of SEQ ID NOS: 1, 26 and 29, collagen membranes were prepared in the same manner as described in Example 2. Each of the prepared collagen membranes was allowed to stand in 10 ml of PBS for 1 hour and dried in air. To evaluate the antibacterial activity of the peptides, an antibacterial test was performed according to the agar diffusion method. Specifically, E. coli cells were cultured in TSB (tryptic soy broth) medium until the absorbance at 620 nm reached 1, and then the cells were harvested and used in the test. The harvested cells were diluted with PBS, and 10^5-10^7 bacterial cells per ml were plated on a TSA plate and incubated at 37° C. for 24 hours. On the plate having the incubated bacterial cells thereon, a collagen membrane having each of the peptides of SEQ ID NOS: 1, 26 and 29 bound thereto was placed and incubated for 3 days, and then the inhibition diameter against the bacterial cells was inhibited was measured.

[2] = system: circular skull defect of rabbits; test: In vivo bone regeneration of peptide-bound collagen membrane in circular skull defect; parameters: species or system New Zealand white rabbits; details: 8 mm circular skull defect, 4 weeks after transplantation; compared to membranes with SEQ ID NO: 1 or 9
Excerpt: In still another example of the present invention, in order to examine the in vivo bone regeneration ability of the fusion peptide that binds to the collagen membrane and has the ability to regenerate bone tissue, each of the peptides of SEQ ID NOS: 1, 9 and 24 was bound to the collagen membrane, and then transplanted into the circular skull defect of rabbits, and the bone regeneration ability was examined. Specifically, a circular bone defect having a diameter of 8 mm was formed in the skull of anesthetized rabbits and covered with the collagen membrane, and the periosteum and the skin were doubly sutured. At 4 weeks after the transplantation, the animal was sacrificed, and the collected sample was fixed in a formalin solution. The tissue was embedded to prepare a sample having a thickness of 20 μm. The sample was stained with fuchsin and toluidine blue to prepare a nondemineralized sample. […] Each of the peptides of SEQ ID NOS: 1, 9 and 24, prepared in Example 1, was bound to a collagen membrane according to the method of Example 2, and then transplanted into the circular skull defect of rabbits, and the bone regeneration ability was examined. […]

[3] = system: collagen membrane; test: Peptide release (elution) test from collagen membrane in PBS, HPLC; type: binding, porcine; details: for Release of the peptide from collagen membrane: eluate in PBS at 37° C.
Experimental: In still another example of the present invention, in order to examine the collagen-binding ability of the fusion peptide that binds specifically to collagen, porcine sink-derived collagen was dissolved in 0.1M HCl at a concentration of 1%(w/v), the pH was neutralized, and the collagen solution was concentrated to 4% by evaporating the solvent. To prepare a membrane, the concentrated collagen solution was poured into a […] diameter dish and mixed, and to prepare a three-dimensional scaffold, the collagen solution was poured onto a 24-well plate for cell culture and mixed. Next, 1% glutaraldehyde or 1% glyceraldehyde was added to crosslink the collagen solution, which was then washed with distilled water and freeze-dried. The resulting membrane having a size of 1×1 cm and a thickness of 250 μm was wet with 10 mg of the fusion peptide of SEQ ID NO: 24 in 100 μl of DW, washed with PBS and freeze-dried. The collagen membrane having the peptide bound thereto was added to PBS and subjected to a peptide release teat at 37° C. After 7 days, 10 ml of the elution solvent added was completely removed, after which 10 ml of a fresh elution solvent was added to the collagen membrane which was then eluted at 37° C. for 4 weeks. After completion of the elution, the membrane was collected and the peptide content thereof was measured.
1 g of porcine skin-derived collagen was dissolved in 100 ml of 0.1M HCl at a concentration of 1%(w/v), and then the pH of the collagen solution was neutralized, and the solvent was evaporated to the collagen solution to 4%.
In order to prepare a membrane, 8 ml of the concentrated collagen solution was poured in a […]-diameter dish and mixed, and in order to prepare a three-dimensional scaffold, 1 ml of the collagen solution was poured in a 24-well plate for cell culture and mixed. Then, 1% glutaraldehyde or 1% glyceraldehydes was added to crosslink the collagen solution, and the crosslinked collagen was washed with distilled water and freeze-dried (see FIG. 1).
0.038 g of the prepared membrane having a size of 1×1 cm and a thickness of 250 μm fall was wet with 10 mg of the fusion peptide of SEQ ID NO: 24 in 100 μl of deionized water (DW), allowed to stand at 4° C. for 8 hours, washed with PBS, and freeze-dried. The collagen membrane having the peptide bound thereto was added to 10 ml of PBS and subjected to a peptide release test at 37° C.
After 7 days, 10 ml of the elution solvent added was completely removed, and then 10 ml of a fresh elution solvent was added to the collagen membrane which was then eluted at 37° C. for 4 weeks. After completion of the elution, the membrane was collected and the peptide content thereof was measured.
0.038 g of the membrane having the peptide bound thereto was precisely weighed, and 5 ml of mobile phase solvent A was added thereto, followed by sonication for 1 hour. Next, 5 ml of mobile phase solvent B was added to and mixed with the membrane solution, and then the mixture was centrifuged at 4500 rpm for 30 minutes. 1 ml of the supernatant was taken and filtered through a 0.22 millipore filter to obtain a sample solution.
A peptide standard was dried in a desiccator (silica gel) for 5 hours, and about 10 mg of the dried peptide was dissolved in mobile phase solvent A. 10 ml of the solution was used as a standard solution. […]

[4] = rabbit, in vivo
Excerpt: In still another example of the present invention, in order to examine the in vivo stability of the fusion peptide that binds to collagen and has the ability to regenerate bone tissue, the peptide of SEQ ID NO: 24 labeled with FITC was bound to the collagen membrane which was then transplanted into a rabbit skull defect. […] Before and at days 1, 3, 7, 14, 21 and 28 after the membrane bound to the peptide of SEQ ID NO: 24 labeled with FITC was transplanted into the rabbit skull defect, the blood was collected and whether the peptide was released into the systemic blood was measured using a fluorometer. […] The peptide of SEQ ID NO: 24 labeled with FITC was bound to a collagen membrane in the same manner as described in Example 2. The collagen membrane was transplanted into the skull defect of a rabbit, and after 4 weeks, the membrane transplanted into the skull defect was observed by confocal microscopy (Olympus, Japan). Before and at days 1, 3, 7, 14, 21 and 28 after 10 mg of the peptide of SEQ ID NO: 24 labeled with FITC was transplanted into the rabbit skull defect, the blood was collected and whether the peptide was released into the systemic blood was measured using a fluorometer.

[5] = target: collagen membrane prepared from porcine skin-derived collagen (porcine); test: release test in PBS at 37 C, HPLC of the eluate
Sequence of collagen membrane prepared from porcine skin-derived collagen (porcine) (P12675 whole entry): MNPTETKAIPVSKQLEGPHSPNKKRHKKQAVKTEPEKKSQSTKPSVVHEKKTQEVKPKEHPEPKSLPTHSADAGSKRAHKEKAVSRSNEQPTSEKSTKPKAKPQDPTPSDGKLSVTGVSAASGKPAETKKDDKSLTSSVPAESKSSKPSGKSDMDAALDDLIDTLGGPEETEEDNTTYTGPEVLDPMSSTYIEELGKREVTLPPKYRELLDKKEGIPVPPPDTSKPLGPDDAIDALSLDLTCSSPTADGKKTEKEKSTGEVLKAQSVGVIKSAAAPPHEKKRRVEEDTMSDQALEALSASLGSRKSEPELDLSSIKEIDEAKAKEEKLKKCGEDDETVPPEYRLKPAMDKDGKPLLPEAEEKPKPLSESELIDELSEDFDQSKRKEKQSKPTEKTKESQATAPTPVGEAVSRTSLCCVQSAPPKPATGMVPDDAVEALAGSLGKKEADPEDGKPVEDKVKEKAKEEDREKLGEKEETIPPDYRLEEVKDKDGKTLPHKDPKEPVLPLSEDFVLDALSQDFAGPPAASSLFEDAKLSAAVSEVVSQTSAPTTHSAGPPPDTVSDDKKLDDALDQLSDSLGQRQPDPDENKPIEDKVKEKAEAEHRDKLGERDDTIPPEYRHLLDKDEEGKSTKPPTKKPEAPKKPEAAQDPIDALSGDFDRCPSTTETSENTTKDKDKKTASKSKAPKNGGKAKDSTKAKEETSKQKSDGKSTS

[6] = target: collagen membrane prepared from porcine skin-derived collagen (porcine); test: HPLC of peptide extracted from the membrane after 4 weeks of elution in PBS at 37 C
[7] = after washing in PBS for 1 hour

GLRSKSKKFRRPDIQYPDAGKCSTRGRKCCRRKK (Collagen Binding Peptide; hBD3-3) [SEQ ID NO: 29]
Antibacterial activity (inhibition diameter) of peptide-bound collagen membrane [1, 7]: maintained its antibacterial activity

GLRSKSKKFRRPDIQYPDARHPLYVDFSDVGWNDWIVA (Collagen Binding Peptide) [SEQ ID NO: 24]
Bone regeneration ability of the collagen membrane having the peptide bound [2]: increased
Peak of the peptide in the eluate ([3]; 4 week elution test, retention time of 13 minutes, Lot Nos. 1, 2 and 3): not observed
Content of the peptide remaining on collagen membrane ([3]; after completion of the 4 week elution at 37° C., Lot Nos. 1-3, 10 mg peptide loaded): 9.2 mg and 9.43 mg and 9.68 mg and 9.20 mg
Release of the peptide from collagen membrane ([3]; day 7, Lot Nos. 1-3, 10 mg peptide loaded): 0 mg
Release of the peptide from collagen membrane ([3]; day 14, Lot Nos. 1-3, 10 mg peptide loaded): 0 mg
Release of the peptide from collagen membrane ([3]; day 28, Lot Nos. 1-3, 10 mg peptide loaded): 0 mg

GLRSKSKKFRRPDIQYPDA (Collagen Binding Peptide) [SEQ ID NO: 1]
Antibacterial activity (inhibition diameter) of peptide-bound collagen membrane [1, 7]: no antibacterial activity
Antibacterial activity (inhibition diameter) of peptide-bound collagen membrane ([1]; before washing): no antibacterial activity

SEQ ID NO: 24 labeled with FITC: FITC (fluorescein isothiocyanate) bound to the N-terminus of the peptide of SEQ ID NO: 24 ({FITC}-GLRSKSKKFRRPDIQYPDARHPLYVDFSDVGWNDWIVA)
Spread of the peptide to the surrounding tissue (confocal microscopy) [4]: did not spread to the surrounding tissue

GKCSTRGRKCCRRKK (hBD3-3) [SEQ ID NO: 26, antibacterial peptide derived from human beta-defensin-3]
Decrease of antibacterial activity after washing ([1]; after washing in PBS for 1 hour versus before washing): about 50%
Antibacterial activity (inhibition diameter) of peptide-bound collagen membrane ([1]; before washing): highest antibacterial activity

B1: fusion peptide of SEQ ID NO: 24 (fusion peptide for bone tissue regeneration that binds specifically to collagen) (peptide)
peptide: GLRSKSKKFRRPDIQYPDARHPLYVDFSDVGWNDWIVA
peptide released from collagen membrane [5]: 0 mg
content of the peptide remaining on collagen membrane (of 10 mg applied) [6]: 9.2 mg and 9.43 mg and 9.68 mg
